Reference: US20150291689A1 (AbbVie / Abbott, published 2015)
Positions count from the first letter of the chain named.

Key:
rabbit TNF = biological target: T1, rabbit TNF (Rabbit, UniProt P04924 80-235, limits assumed); assay: cell-based or functional assay
T1 sequence (looked up): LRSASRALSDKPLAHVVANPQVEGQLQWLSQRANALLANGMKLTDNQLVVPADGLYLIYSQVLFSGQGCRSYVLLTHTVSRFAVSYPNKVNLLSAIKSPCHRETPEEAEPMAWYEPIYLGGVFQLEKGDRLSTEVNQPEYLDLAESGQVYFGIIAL

[1] = biological target: monkey (Rhesus/Cynomolgus) TNF (Monkey (Rhesus/Cynomolgus), UniProt P48094 77-233); assay: cell-based or functional assay
mouse IL-17 = biological target: T2, mouse IL-17 (Mouse, UniProt Q62386 26-158, limits assumed); assay: cell-based or functional assay
T2 sequence (looked up): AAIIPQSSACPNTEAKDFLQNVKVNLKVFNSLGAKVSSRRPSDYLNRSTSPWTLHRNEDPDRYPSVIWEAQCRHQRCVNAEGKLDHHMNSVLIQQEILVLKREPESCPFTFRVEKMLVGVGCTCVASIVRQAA

rat TNF = biological target: T3, rat TNF (Rat, UniProt P16599 80-235); assay: cell-based or functional assay
T3 sequence (looked up): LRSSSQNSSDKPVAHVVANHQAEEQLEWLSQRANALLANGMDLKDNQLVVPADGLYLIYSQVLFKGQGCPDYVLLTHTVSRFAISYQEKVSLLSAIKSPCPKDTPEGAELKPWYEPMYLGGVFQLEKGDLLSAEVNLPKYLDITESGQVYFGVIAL

mouse TNF = biological target: T4, mouse TNF (Mouse, UniProt P06804 80-235); assay: cell-based or functional assay
T4 sequence (looked up): T3 sequence (looked up) with A22V, I58V, S91N, I96V, M117I, L130Q, I143F, T144A

human TNF-α [2] = biological target: T5, human TNF-α (human, UniProt P01375 77-233); assay: cell-based or functional assay
rabbit IL-17 [3] = biological target: T6, rabbit IL-17 (Rabbit, UniProt G1SLF2 24-153); assay: cell-based or functional assay
T6 sequence: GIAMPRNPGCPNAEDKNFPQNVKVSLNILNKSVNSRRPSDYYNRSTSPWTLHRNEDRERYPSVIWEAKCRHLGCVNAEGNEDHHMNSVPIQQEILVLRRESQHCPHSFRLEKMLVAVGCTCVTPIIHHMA

[4] = biological target: T7, monkey (Rhesus/Cynomolgus) IL-17 (Monkey (Rhesus/Cynomolgus), UniProt F6T3G5 24-155); assay: cell-based or functional assay
T7 sequence: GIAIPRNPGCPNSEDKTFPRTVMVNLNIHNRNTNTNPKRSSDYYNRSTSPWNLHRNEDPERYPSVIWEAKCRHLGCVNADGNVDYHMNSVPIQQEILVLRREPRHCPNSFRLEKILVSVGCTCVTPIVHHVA

rat IL-17 = biological target: T8, rat IL-17 (Rat, UniProt Q61453 18-150, limits assumed); assay: cell-based or functional assay
T8 sequence (looked up): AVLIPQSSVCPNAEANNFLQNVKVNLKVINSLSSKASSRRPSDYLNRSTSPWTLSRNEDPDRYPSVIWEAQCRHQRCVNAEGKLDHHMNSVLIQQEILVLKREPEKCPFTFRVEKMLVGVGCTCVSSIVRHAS

[5] = biological target: T9, human IL-17A homodimer (IL-17 A/A) (human, UniProt Q16552 24-155); assay: cell-based or functional assay
T9 sequence: T7 sequence with A3T, T17N, V77I, R104P

rabbit IL-17 [6] = biological target: T6, rabbit IL-17; assay: Biacore SPR, 3 experiments
[7] = biological target: T10, human IL-17A/F heterodimer (human, UniProt Q16552 24-155; Q96PD4 31-163); assay: cell-based or functional assay
T10 sequence 1: T7 sequence with A3T, T17N, V77I, R104P
T10 sequence 2: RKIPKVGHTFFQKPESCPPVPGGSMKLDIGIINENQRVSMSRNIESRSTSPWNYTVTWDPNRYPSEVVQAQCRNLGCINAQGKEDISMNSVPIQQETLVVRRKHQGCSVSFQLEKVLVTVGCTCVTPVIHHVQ

human TNF-α [8] = biological target: T5, human TNF-α; assay: cell-based or functional assay; remark: listed apart in the source
[9] = biological target: T9, human IL-17A homodimer (IL-17 A/A); assay: cell-based or functional assay; remark: listed apart in the source

T5 sequence (P01375 77-233 limits assumed): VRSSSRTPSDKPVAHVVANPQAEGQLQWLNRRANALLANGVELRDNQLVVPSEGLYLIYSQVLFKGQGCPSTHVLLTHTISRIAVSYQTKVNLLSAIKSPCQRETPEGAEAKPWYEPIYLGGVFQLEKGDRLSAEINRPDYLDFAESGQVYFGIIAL
Sequence of monkey (Rhesus/Cynomolgus) TNF (P48094 77-233 limits assumed): as the sequence (P01375 77-233 limits assumed) above, with R44T, T72N, R138L counted along it

B1: ABBV-257 (HMAK199-1-GS10-H10F7-M11 DVD-Ig binding protein) (bispecific antibody)
heavy: EVQLVQSGAEVKKPGASVKVSCKASGYTFANYGIIWVRQAPGQGLEWMGWINTYTGKPTYAQKFQGRVTMTTDTSTSTAYMELSSLRSEDTAVYYCARKLFTTMDVTDNAMDYWGQGTTVTVSSGGGGSGGGGSEVQLVQSGAEVKKPGSSVKVSCKASGYTFTDYEIHWVRQAPGQGLEWMGVNDPESGGTFYNQKFDGRVTLTADESTSTAYMELSSLRSEDTAVYYCTRYSKWDSFDGMDYWGQGTTVTVSSASTKGPSVFPLAPSSKSTSGGTAALGCLVKDYFPEPVTVSWNSGALTSGVHTFPAVLQSSGLYSLSSVVTVPSSSLGTQTYICNVNHKPSNTKVDKKVEPKSCDKTHTCPPCPAPEAAGGPSVFLFPPKPKDQLMISRTPEVTCVVVDVSHEDPEVKFNWYVDGVEVHNAKTKPREEQYNSTYRVVSVLTVLHQDWLNGKEYKCKVSNKALPAPIEKTISKAKGQPREPQVYTLPPSREEMTKNQVSLTCLVKGFYPSDIAVEWESNGQPENNYKTTPPVLDSDGSFFLYSKLTVDKSRWQQGNVFSCSVLHEALHNHYTQKSLSLSPGK
light: DIQMTQSPSSLSASVGDRVTITCRASQDISQYLNWYQQKPGKAPKLLIYYTSRLQSGVPSRFSGSGSGTDFTLTISSLQPEDFATYFCQQGNTWPPTFGQGTKLEIKRGGSGGGGSGDIQMTQSPSSLSASVGDRVTITCRASSGIISYIDWFQQKPGKAPKRLIYATFDLASGVPSRFSGSGSGTDYTLTISSLQPEDFATYYCRQVGSYPETFGQGTKLEIKRTVAAPSVFIFPPSDEQLKSGTASVVCLLNNFYPREAKVQWKVDNALQSGNSQESVTEQDSKDSTYSLSSTLTLSKADYEKHKVYACEVTHQGLSSPVTKSFNRGEC
modifications: N-linked glycans on the heavy chain (position not given)
For B1, the “IC50, in vitro neutralization assay” value (rabbit TNF) was > 1000 nM, the “IC50, in vitro neutralization assay” value [1] was 0.025 nM and the “IC50, in vitro neutralization assay” value (mouse IL-17) was 0.239 nM. For the same binder, the “IC50, in vitro neutralization assay” value (rat TNF) was > 1000 nM, the “IC50, in vitro neutralization assay” value (mouse TNF) was > 1000 nM and the “IC50, in vitro neutralization assay” value (human TNF-α [2]) was 0.025 nM. For the same binder, the “IC50, in vitro neutralization assay” value (rabbit IL-17 [3]) was 11.4 nM, the “IC50, in vitro neutralization assay” value [4] was 0.032 nM and the “IC50, in vitro neutralization assay” value (rat IL-17) was 0.135 nM. The “IC50, in vitro neutralization assay” value [5] was 0.026 nM, the Kd (rabbit IL-17 [6]) was 3.3 nM and the “Mean IC50, IL-17 dependent induction of IL-6 in fibroblasts” value [7] was 0.11 nM. The “Mean IC50, TNF-induced lethality of L929 cells” value (human TNF-α [8]) was 0.025 nM and the “Mean IC50, IL-17 dependent induction of IL-6 in fibroblasts” value [9] was 0.026 nM.
